Laboratory results from patent US20040156847A1.

Molecular target: human CD30 expressed on human peripheral blood eosinophils (human) (UniProt P28908)
Assay: cell-based or functional assay

UniProt P28908, sequence (P28908 19-595): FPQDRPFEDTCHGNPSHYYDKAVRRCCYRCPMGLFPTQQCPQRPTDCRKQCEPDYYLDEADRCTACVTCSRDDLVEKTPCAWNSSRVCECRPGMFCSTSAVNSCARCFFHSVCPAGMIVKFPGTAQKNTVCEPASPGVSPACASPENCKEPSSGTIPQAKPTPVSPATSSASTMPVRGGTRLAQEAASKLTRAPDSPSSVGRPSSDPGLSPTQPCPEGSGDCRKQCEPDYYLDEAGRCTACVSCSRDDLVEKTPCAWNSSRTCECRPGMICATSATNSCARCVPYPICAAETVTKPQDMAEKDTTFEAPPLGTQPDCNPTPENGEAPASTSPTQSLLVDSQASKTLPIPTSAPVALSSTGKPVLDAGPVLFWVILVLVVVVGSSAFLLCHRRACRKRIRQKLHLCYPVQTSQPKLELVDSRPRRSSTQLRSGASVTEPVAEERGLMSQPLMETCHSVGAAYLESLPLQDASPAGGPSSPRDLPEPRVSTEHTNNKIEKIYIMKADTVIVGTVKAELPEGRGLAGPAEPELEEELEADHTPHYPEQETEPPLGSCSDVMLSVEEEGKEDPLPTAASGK

apoptosis of human peripheral blood eosinophils after 4 hours, antibody immobilized at 10 µg/ml [%]	apoptosis of human peripheral blood eosinophils (FITC-Annexin V, flow cytometry), antibody immobilized at 0.01 µg/ml, 4 hours [%]	apoptosis of human peripheral blood eosinophils (FITC-Annexin V, flow cytometry), antibody immobilized at 0.1 µg/ml, 4 hours [%]	apoptosis of human peripheral blood eosinophils (FITC-Annexin V, flow cytometry), antibody immobilized at 1 µg/ml, 4 hours [%]	apoptosis of human peripheral blood eosinophils (FITC-Annexin V, flow cytometry), antibody immobilized at 10 µg/ml, 4 hours [%]	apoptosis of human peripheral blood eosinophils after 1 hour, antibody immobilized at 10 µg/ml [%]	apoptosis of human peripheral blood eosinophils after 1 hour, antibody immobilized at 10 µg/ml (comparison with anti-Fas CH-11) [%]	apoptosis of human peripheral blood eosinophils after 4 hours, antibody immobilized at 10 µg/ml (comparison with anti-Fas CH-11) [%]	apoptosis of human peripheral blood eosinophils after 4 hours, antibody immobilized on polystyrene microbeads [%]	apoptosis of human peripheral blood eosinophils after 4 hours, ligand immobilized at 10 µg/ml [%]	apoptosis of human peripheral blood eosinophils after 4 hours, ligand immobilized at 100 µg/ml [%]	Substance
30	–	–	–	–	–	–	–	–	–	–	anti-mouse CD30 monoclonal antibody YMSM636.4.10 (Serotec Ltd, Oxford UK)
70	7.8	11.4	44.8	71.9	50	50	70	44	–	–	mouse anti-human CD30 monoclonal antibody Ber-H8 (PharMingen, San Diego, Calif.)
70	–	–	16.3	78.8	50	50	70	27.9	–	–	mouse anti-human CD30 monoclonal antibody HRS-4 (Immunotech, Marseilles, France)
–	–	–	–	–	–	–	–	–	28	35	recombinant mouse CD30 ligand (R&D Systems Inc. Minneapolis, USA) (from UniProt P32972 68-239)
